According to IntAct's records for PubMed 16696976:

B1: Amphiphysin (Homo sapiens), P49418 (parent)
chain: MADIKTGIFAKNVQKRLNRAQEKVLQKLGKADETKDEQFEEYVQNFKRQEAEGTRLQRELRGYLAAIKGMQEASMKLTESLHEVYEPDWYGREDVKMVGEKCDVLWEDFHQKLVDGSLLTLDTYLGQFPDIKNRIAKRSRKLVDYDSARHHLEALQSSKRKDESRISKAEEEFQKAQKVFEEFNVDLQEELPSLWSRRVGFYVNTFKNVSSLEAKFHKEIAVLCHKLYEVMTKLGDQHADKAFTIQGAPSDSGPLRIAKTPSPPEEPSPLPSPTASPNHTLAPASPAPARPRSPSQTRKGPPVPPLPKVTPTKELQQENIISFFEDNFVPEISVTTPSQNEVPEVKKEETLLDLDFDPFKPEVTPAGSAGVTHSPMSQTLPWDLWTTSTDLVQPASGGSFNGFTQPQDTSLFTMQTDQSMICNLAESEQAPPTEPKAEEPLAAVTPAVGLDLGMDTRAEEPVEEAVIIPGADADAAVGTLVSAAEGAPGEEAEAEKATVPAGEGVSLEEAKIGTETTEGAESAQPEAEELEATVPQEKVIPSVVIEPASNHEEEGENEITIGAEPKETTEDAAPPGPTSETPELATEQKPIQDPQPTPSAPAMGAADQLASAREASQELPPGFLYKVETLHDFEAANSDELTLQRGDVVLVVPSDSEADQDAGWLVGVKESDWLQYRDLATYKGLFPENFTRRLD
partner: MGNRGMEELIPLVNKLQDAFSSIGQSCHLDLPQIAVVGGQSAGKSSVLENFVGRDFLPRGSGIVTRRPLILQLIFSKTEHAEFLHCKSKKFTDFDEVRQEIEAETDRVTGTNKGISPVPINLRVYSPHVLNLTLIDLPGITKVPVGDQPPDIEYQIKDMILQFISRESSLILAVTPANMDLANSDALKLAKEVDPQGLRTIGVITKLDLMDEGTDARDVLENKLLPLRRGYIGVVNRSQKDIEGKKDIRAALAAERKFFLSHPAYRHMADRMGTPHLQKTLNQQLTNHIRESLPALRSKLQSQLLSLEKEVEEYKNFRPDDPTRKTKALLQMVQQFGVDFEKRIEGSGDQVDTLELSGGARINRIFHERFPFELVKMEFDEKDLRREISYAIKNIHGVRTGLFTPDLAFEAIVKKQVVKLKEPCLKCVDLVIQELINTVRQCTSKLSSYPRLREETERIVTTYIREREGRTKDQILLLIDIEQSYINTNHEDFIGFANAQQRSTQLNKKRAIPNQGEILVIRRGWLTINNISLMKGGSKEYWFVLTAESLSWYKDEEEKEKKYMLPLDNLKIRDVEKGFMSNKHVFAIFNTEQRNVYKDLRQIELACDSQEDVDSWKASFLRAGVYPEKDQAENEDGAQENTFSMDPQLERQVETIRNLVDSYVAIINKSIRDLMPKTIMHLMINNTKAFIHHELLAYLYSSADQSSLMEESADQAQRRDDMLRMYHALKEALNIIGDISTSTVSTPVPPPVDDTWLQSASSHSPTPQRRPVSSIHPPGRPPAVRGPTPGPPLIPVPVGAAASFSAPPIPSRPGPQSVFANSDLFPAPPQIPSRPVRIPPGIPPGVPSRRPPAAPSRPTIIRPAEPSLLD

Variants of: B1
Details: with dyn2_human DNM2, P50570

| effect of a mutation on the interaction | Variant |
| --- | --- |
| disrupting interaction | P687L |
| disrupting interaction | G684R |
